{
  "source": "paper PMC2148190",
  "about": "(The Journal of Cell Biology, 1999)",
  "binders": {"B1": {"name": "His-tagged Bid (recombinant wild-type Bid) (natural protein)", "chain": "MDSEVSNGSGLGAEHITDLLVFGFLQSSGCTRQELEVLGRELPVQAYWEADLEDELQTDGSQASRSFNQGRIEPDSESQEEIIHNIARHLAQIGDEMDHNIQPTLVRQLAAQFMNGSLSEEDKRNCLAKALDEVKTAFPRDMENDKAMLIMTMLLAKKVASHAPSLLRDVFHTTVNFINQNLFSYVRNLVRNEMD"}, "B2": {"name": "BidmIII-3 (G94→ A) (natural protein)", "chain": "B1 chain with G94A"}},
  "key": {"[1]": {"target": "His-tagged human Bcl-xL lacking 24 amino acids at the COOH terminus (human, UniProt Q07817-1 1-209)", "sequence (Q07817 1-209)": "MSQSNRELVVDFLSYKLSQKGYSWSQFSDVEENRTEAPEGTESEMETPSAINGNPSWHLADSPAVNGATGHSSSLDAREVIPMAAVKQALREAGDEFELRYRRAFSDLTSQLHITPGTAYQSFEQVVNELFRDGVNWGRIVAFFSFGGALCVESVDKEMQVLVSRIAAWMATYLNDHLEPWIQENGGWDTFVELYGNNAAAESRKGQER", "test": "co-IP"}, "[2]": {"target": "Human Bcl-2 lacking 34 amino acids at the COOH terminus (human, UniProt P10415 1-205)", "sequence (P10415 1-205)": "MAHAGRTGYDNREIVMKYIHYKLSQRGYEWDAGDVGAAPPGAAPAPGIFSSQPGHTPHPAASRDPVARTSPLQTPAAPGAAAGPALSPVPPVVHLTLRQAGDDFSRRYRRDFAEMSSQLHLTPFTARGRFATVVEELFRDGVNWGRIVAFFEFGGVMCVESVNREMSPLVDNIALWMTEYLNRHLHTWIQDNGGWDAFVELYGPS", "test": "co-IP"}},
  "note": "Where a chain is given by its changes, count along the chain named.",
  "data": [
    {"binder": "B1", "values": [
      {"measurement": "binding result", "setting": "[1]", "value": "binds"},
      {"measurement": "binding result", "setting": "[2]", "value": "binds"}
    ]},
    {"binder": "B2", "values": [
      {"measurement": "binding result", "setting": "[1]", "value": "binds"},
      {"measurement": "binding result", "setting": "[2]", "value": "binds"}
    ]}
  ]
}
